Test results reported in IntAct's records for PubMed 21658387.

Legend:
[1] = biological target: akt1_human AKT1 (UniProt P31749)
[2] = biological target: mbp_bovin MBP (UniProt P02687)
[3] = biological target: mbp_bovin MBP (UniProt P02687); remark: listed apart in the source
[4] = biological target: akt1_human AKT1 (UniProt P31749); remark: listed apart in the source
[5] = biological target: akt1_human AKT1 (UniProt P31749); remark: listed apart in the source

Chain of akt1_human AKT1 (P31749 whole entry): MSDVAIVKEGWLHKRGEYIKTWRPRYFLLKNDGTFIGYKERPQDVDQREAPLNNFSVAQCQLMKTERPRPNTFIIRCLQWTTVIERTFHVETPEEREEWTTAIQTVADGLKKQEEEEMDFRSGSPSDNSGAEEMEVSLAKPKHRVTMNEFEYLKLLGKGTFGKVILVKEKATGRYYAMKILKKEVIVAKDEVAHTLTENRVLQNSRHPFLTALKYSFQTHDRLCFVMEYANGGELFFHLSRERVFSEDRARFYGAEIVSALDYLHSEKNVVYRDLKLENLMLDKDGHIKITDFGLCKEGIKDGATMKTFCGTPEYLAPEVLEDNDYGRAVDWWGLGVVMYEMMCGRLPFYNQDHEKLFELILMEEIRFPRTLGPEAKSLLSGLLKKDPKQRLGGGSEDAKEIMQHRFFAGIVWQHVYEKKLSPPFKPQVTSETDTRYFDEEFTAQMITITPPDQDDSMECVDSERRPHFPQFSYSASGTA
Chain of mbp_bovin MBP (P02687 whole entry): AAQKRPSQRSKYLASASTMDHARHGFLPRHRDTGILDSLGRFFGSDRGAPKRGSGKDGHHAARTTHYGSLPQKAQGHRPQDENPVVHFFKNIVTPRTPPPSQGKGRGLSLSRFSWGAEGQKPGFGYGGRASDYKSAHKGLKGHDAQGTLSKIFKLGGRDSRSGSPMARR

Leucine-rich repeat serine/threonine-protein kinase 2 (Homo sapiens), Q5S007 I2020T
effect of a mutation on the interaction [1]: decreasing interaction | effect of a mutation on the interaction [2]: increasing interaction

Leucine-rich repeat serine/threonine-protein kinase 2 (Homo sapiens), Q5S007 G2019S
effect of a mutation on the interaction [3]: increasing interaction | effect of a mutation on the interaction [4]: decreasing interaction

Leucine-rich repeat serine/threonine-protein kinase 2 (Homo sapiens), Q5S007 R1441C
effect of a mutation on the interaction [5]: decreasing interaction
